Assay results from patent US20230071609A1 (Genentech, published 2023).
Values belong to the binder of their own block, whether it stands above or below them.

Experiments:
[1] = target: T1, untagged APOL1-G0, KIK variant, transiently expressed (COS cells) (human, UniProt O14791 29-398); assay: immunofluorescence on transfected COS cells, 1 µg/ml; grade
T1 construct: Origene SC109941 clone with E150K, M228I, R255K
T1 chain: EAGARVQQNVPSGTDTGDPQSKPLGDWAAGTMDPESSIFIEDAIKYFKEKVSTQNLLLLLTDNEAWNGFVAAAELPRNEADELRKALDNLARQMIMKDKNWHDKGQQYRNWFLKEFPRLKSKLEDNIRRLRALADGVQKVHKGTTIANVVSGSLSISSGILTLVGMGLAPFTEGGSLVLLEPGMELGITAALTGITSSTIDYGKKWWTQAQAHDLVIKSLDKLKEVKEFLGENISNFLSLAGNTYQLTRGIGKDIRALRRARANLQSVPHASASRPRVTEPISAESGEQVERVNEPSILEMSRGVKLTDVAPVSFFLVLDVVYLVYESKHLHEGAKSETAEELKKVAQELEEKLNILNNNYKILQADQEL

APOL6-myc-FLAG = target: T2, APOL6-myc-FLAG (human, UniProt Q9BWW8 1-343); assay: immunofluorescence on transfected COS cells; grade
T2 construct: whole, on cells; In fixed, permeabilized transfected COS cells; untagged APOL6 in the western blots; not shown: C-terminal myc-FLAG tag
T2 sequence (looked up): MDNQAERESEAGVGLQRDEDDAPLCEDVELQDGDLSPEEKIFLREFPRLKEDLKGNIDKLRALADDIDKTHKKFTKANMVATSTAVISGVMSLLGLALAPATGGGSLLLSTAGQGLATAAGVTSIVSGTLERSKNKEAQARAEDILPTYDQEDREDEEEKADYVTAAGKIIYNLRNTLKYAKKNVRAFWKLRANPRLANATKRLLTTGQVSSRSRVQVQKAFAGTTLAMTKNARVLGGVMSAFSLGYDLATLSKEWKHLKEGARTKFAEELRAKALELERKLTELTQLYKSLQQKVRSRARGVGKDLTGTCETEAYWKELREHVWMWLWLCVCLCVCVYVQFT
Excerpt: COS cells were transfected as in FIG. 31A except APOL1 and APOL2 were also C-terminally myc-FLAG tagged. Overlays of APOL with epitope tags: either mouse anti-FLAG-M2 or mouse anti-myc 9E10 for anti-APOL1 rabmabs; or rabbit anti-Myc 71D10 in conjunction with mouse anti-APOL1. Signals indicate the two antibodies overlap (i.e. anti-APOL1 cross-reacts with that APOL); signals (epitope tag only) indicate no cross-reactivity. Alexa647 anti-rabbit or mouse were used for the tags to rule out the possibility that any colocalization was a bleed-through artifact. Sparsely transfected areas were imaged to permit evaluation of background staining in adjacent untransfected cells—DAPI nuclear staining identifies both untransfected and transfected cell nuclei. […] Note that none of the antibodies cross-reacted with the more distantly related APOL6. *, APOL2-myc-FLAG is presumably misfolded, since it is not as cross-reactive as untagged APOL2 (compare FIG. 31A) with several antibodies. Commercial antibodies are Sigma HPA018885, Epitomics EPR2907 (2) (Epito) and Proteintech 11486-2-AP (Ptech).
Cells were plated on LabTekII (Nalge Nunc 154534) slides and fixed at 70-100% confluency. For mAb screening, cells were fixed/permeabilized for 5 min in −20° C. methanol (EMD MX0485-6). For all other experiments, cells were fixed in 3% paraformaldehyde in PBS (EMS 15710) for 20 mins at room temperature, quenched with 50 mM NH₄Cl in PBS for 10 mins, then permeabilized with 0.1% TX-100 in PBS for 4 mins or for 1h in saponin buffer [0.4% saponin (Sigma S7900), 1% bovine serum albumin (BSA; Sigma A2153), 2% fetal bovine serum (Seradigm) in PBS]. First antibodies (stored sterile at 4° C.) were applied for 1 h at room temperature, at 1 μg/ml for screening on transfected cells or at subsequently optimized concentrations for detecting endogenous APOL1. After 3×10 min washes in PBS (for Methanol or TX-100 protocols) or saponin buffer (saponin protocol), secondary antibodies were applied at 1.88 μg/ml for 1 h at room temperature, washed 3× and mounted under No. 1.5 coverslips in ProLong Gold with DAPI (4′,6-diamidino-2-phenylindole; Life Technologies P36931).

[2] = target: T3, gD-SRA-ID-GPI (construct e) (human, UniProt O14791 305-398, C-terminal GPI anchor); assay: flow cytometry, live CHO cells; 3.3A8 is the representative for the C-terminus of MAD
T3 sequence: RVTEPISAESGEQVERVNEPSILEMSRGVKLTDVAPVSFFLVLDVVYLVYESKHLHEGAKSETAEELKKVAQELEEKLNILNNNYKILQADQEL
Description: (§1) Stably transfected live (not fixed or permeabilized) CHO cells expressing the gD-iAPOL1-GPI constructs indicated in FIGS. 1A-1E after induction with 5 μg/ml dox for 48 h, showing differential antibody binding at 5 μg/ml. […] White histograms are Alexa488 anti-mouse or anti-rabbit secondaries only; grey histograms are the anti-APOL1 signals. A representative histogram for each category is shown: 3.7D6 for PFD; 3.3A8 for C-terminus of MAD, 3.5H9 for N-terminus of MAD; 3.1C1 for SRA-ID; 3.2D4 for multi-domain; 3.3F7 for conformational and 3.5B10 for FACS-negative (FACS-ve). The prefix 3 in the name of the antibodies denotes murine monoclonals from Method #3 (as shown in Example 1 below); other antibodies (not illustrated here) starting with the number 4 are murine monoclonals derived from mice additionally boosted with SRA-ID protein; and prefix 5-named antibodies are rabbit monoclonals from Method #5 (Table 2A; and Example 2). […] The Sigma polyclonal (HPA018885, raised to aa 263-387) and the Epitomics rabbit monoclonal (EPR2907(2), raised to an undisclosed peptide) are SRA-ID binders. […]
(§2) Cells were harvested with 5 mM EDTA in PBS, washed once with growth media and twice with PBS. […] Signals were read in a FACSCalibur3 (Becton Dickinson), with the exception of FIG. 8A and FIG. 14, which used a FACSCelesta, and data was analyzed using FlowJo v8.4.5.

[3] = target: T4, circulating APOL1 in normal human serum (human, UniProt O14791 28-398); assay: cell-based or functional assay
T4 sequence (looked up): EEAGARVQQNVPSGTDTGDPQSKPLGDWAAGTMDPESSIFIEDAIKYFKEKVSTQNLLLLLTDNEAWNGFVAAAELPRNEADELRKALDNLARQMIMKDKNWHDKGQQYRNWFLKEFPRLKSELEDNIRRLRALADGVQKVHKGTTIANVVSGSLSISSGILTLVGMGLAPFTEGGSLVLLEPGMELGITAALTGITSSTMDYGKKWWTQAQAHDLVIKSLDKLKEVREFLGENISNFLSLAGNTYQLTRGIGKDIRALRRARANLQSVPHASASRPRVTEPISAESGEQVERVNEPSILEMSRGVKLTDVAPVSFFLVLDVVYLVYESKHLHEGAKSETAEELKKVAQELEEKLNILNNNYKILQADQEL

[4] = target: T4, circulating APOL1 in normal human serum; assay: immunoprecipitation from normal human serum with Dynabead-conjugated antibody
Description: FIGS. 17A-17C show immunoprecipitation of APOL1 from NHS with a different set of APOL1 antibodies. FIG. 17A show as in FIG. 5D that all the blocking antibodies could immunoprecipitate APOL1, except the conformational antibody 3.7F5 (SEQ ID NOS: 203-212), which is also a poor blocker.
Anti-APOL1 antibodies were conjugated to Dynabeads (ThermoFisher 14311D) as per the manufacturer's protocol. Briefly, 10 μg of each antibody was conjugated to 2 mg of Dynabeads overnight at 37° C. with rotation. Next day, unbound antibody was washed off and conjugated antibody was resuspended at a final concentration of 50 μg/ml. 2-5 μg of the conjugated antibody was incubated with 1 μl of undiluted human serum at 4° C. for 16 h in a total volume of 500 μl with PBS. Unbound serum was washed with 150 mM NaCl in PBS. Bound APOL1 was eluted with low pH glycine buffer (this was preferable to direct boiling to avoid elution of non-specifically bound proteins). Eluates were boiled in 5× sample buffer (Invitrogen 39000) and loaded on 4-12% Bis-Tris gels (Invitrogen NP03220). Immunoprecipitated APOL1 was detected by rabbit polyclonal APOL1 antibody (Proteintech 11486-2-AP, 1:1000) and ECL. APOA1 was detected with goat anti-APOA1 (Rockland 600-101-109), HPR was detected with 1 μg/ml rabbit anti-HPR (Millipore ABS 196) and ECL Prime. […]

[5] = target: T3, gD-SRA-ID-GPI (construct e); assay: flow cytometry, live CHO cells; conformational = only bound to full length APOL1, but not individual domains
Description: (§3) Stably transfected live (not fixed or permeabilized) CHO cells expressing the gD-iAPOL1-GPI constructs indicated in FIGS. 1A-1E after induction with 5 μg/ml dox for 48 h, showing differential antibody binding at 5 μg/ml. […] White histograms are Alexa488 anti-mouse or anti-rabbit secondaries only; grey histograms are the anti-APOL1 signals. A representative histogram for each category is shown: 3.7D6 for PFD; 3.3A8 for C-terminus of MAD, 3.5H9 for N-terminus of MAD; 3.1C1 for SRA-ID; 3.2D4 for multi-domain; 3.3F7 for conformational and 3.5B10 for FACS-negative (FACS-ve). The prefix 3 in the name of the antibodies denotes murine monoclonals from Method #3 (as shown in Example 1 below); other antibodies (not illustrated here) starting with the number 4 are murine monoclonals derived from mice additionally boosted with SRA-ID protein; and prefix 5-named antibodies are rabbit monoclonals from Method #5 (Table 2A; and Example 2). […] The Sigma polyclonal (HPA018885, raised to aa 263-387) and the Epitomics rabbit monoclonal (EPR2907(2), raised to an undisclosed peptide) are SRA-ID binders. Successful APOL1 surface expression of each construct was confirmed with the anti-gD epitope tag (gD-tag) antibody (to Herpes Simplex Virus glycoprotein D).
(§4) Cells were harvested with 5 mM EDTA in PBS, washed once with growth media and twice with PBS. Approximately 0.5×10⁶/m1 of cells resuspended in PBS were incubated with anti-APOL1 antibodies for 1 h on ice. Following two PBS washes, 2 μg/ml of Alexa488 anti-mouse or anti-rabbit (Invitrogen A11029 and A21206, respectively) was used for 1 h on ice for detection. Cells were washed twice in PBS and resuspended in PBS with 1 μg/ml propidium iodide. Signals were read in a FACSCalibur3 (Becton Dickinson), with the exception of FIG. 8A and FIG. 14, which used a FACSCelesta, and data was analyzed using FlowJo v8.4.5.

[6] = target: T5, gD-PFD-MAD-GPI (construct c) (human, UniProt O14791 61-305, C-terminal GPI anchor); assay: as above
T5 sequence: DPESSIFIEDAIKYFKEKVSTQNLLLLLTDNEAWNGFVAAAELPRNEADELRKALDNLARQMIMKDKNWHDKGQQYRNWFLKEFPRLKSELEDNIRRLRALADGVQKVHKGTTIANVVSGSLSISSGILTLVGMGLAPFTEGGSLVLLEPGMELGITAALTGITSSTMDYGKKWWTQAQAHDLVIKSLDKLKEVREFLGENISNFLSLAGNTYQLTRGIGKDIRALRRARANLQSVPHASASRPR
Description: as §3, §4

[7] = target: T6, gD-MAD-SRA-ID-GPI (construct d) (human, UniProt O14791 238-398, C-terminal GPI anchor); assay: as above
T6 sequence: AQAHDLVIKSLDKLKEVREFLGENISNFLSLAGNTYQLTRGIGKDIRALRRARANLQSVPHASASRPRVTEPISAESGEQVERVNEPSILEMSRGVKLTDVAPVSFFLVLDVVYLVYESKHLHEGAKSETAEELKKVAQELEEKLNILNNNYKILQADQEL
Description: as §3, §4

[8] = target: T7, gD-iAPOL1-GPI (construct b, aa 61-398) (human, UniProt O14791 61-398, C-terminal GPI anchor); assay: flow cytometry, live CHO cells, 5 µg/ml; conformational = only bound to full length APOL1
T7 construct: Stably expressed on CHO cells under a doxycycline-inducible promoter; also called gD-APOL1-GPI; gD-APOL1-G0-GPI
T7 sequence: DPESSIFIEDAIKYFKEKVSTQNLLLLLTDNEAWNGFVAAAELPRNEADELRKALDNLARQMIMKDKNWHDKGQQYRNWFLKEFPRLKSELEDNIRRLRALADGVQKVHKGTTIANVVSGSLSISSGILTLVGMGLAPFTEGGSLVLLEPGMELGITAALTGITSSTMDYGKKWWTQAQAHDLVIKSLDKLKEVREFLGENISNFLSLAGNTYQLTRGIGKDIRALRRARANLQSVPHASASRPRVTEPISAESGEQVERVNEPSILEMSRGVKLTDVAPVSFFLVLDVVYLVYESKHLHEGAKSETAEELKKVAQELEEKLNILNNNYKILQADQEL
Description: as §1, §2

binding result [1]: binds | binding result (APOL6-myc-FLAG): no binding (tested: 1 µg/ml) | binding result [2]: no binding (tested: 5 µg/ml) | IC50 of blocking of serum APOL1-mediated trypanolysis (Alamar Blue) [3]: 400 pM
B1: antibody 3.3A8 (antibody, V domains shown)
VH: QVQFQQSGAELVRPGASVKVTCKALGYTFSNYEIHWVRQPPVHGLEWIGAIHPGNGVTAYNQMFKGRATLAADKSSSTAYMELSSLTSEDSAVYYCTENFDYWGQGTALTVSS
VL: DVVVTQTPLSLPVSFGDQVSISCRSSQSLTNSYGITYLSWFLLKPGQSPQLLIYEISNRFSGVPDRFSGSGSGTDFTLKISTIKPEDLGVYFCLQGTHQPFTFGAGTKLEIKR
notes: Mouse mAb, cloned as murine IgG2a LALAPG; also called MAD antibody 3.3A8

binding result [4]: no binding
B2: antibody 3.7F5 (antibody, V domains shown)
VH: EIHLQQSGPEVVQPGASLKVSCKASDYSFTDYNVFWVKQSHGKSLEWIAYIDPYNGATSYNQKFKDKATLTVDKSSSTAFMYLNSLTSEDSAVYYCARGTVRAFFDSWGQGTTLTVSS
VL: DIVMSQSPSSLVVSVGEKVSLSCKSSQSLLYRNDQINYLAWYQQKPGQSPKLLIFWASTRESGVPVRFTGSGSGTDFTLNINTVKAEDLAVYYCQQYYSYPPTFGTGTKLEIKR
notes: Mouse mAb, cloned as murine IgG2a LALAPG; also called conformational antibody 3.7F5

binding result [5]: no binding (tested: 5 µg/ml) | binding result [6]: no binding (tested: 5 µg/ml) | binding result [7]: no binding (tested: 5 µg/ml) | binding result [8]: binds
B3: antibody 3.3F7 (antibody, V domains shown)
VH: QVQLKQSGPSLVQPSQSLSITCTVSGFSLTTYGVHWVRQSPGKGLEWLGVIWRGGNTDYNAAFMSRLSITKDNSQSQVFFKMNSLQADDTAIYYCAKSSYGYHYTMDYWGHGTSVTVSS
VL: DIVVTQSHRFMSTSVGDRVIITCKASQNVGTAVAWYQQKPGQSPKLLIYWASTRHTGVPDRFTGSGSGTDFTLTISNVQSEDLADYFCQRYNNFPFTFGSGTKLEIKR
notes: Mouse mAb, cloned as murine IgG2a LALAPG
